From publication PMC7435236, “Self‐Assembling Glycopeptide Conjugate as a Versatile Platform for Mimicking Complex Polysaccharides” (Advanced Science, 2020)

Tested on: splenocytes from immunized mice
Assay: IFN‐γ production by splenocytes of immunized mice after in vitro re-stimulation (ELISA)
Format: in vivo, C57BL/6 mice
Conditions: spleen cells from vaccinated mice (NPs plus OVA, or OVA only), OVA stimulation 48 h in vitro
Procedure: To further investigate the activation ability of mannosylated nanoparticles, the spleen cells from mice that vaccinated for 4 weeks with mannosylated NPs plus OVA (group 1) and OVA only (group 4) were stimulated by OVA for 48 h in vitro. The expression levels of IFN‐γ in cell media with or without OVA stimulation was measured by ELISA (Figure 6c).
After immunization, the spleens of the immunized mice were removed under sterile conditions and suspended in sterile cold PBS. After centrifugation, the cell suspension was diluted to 2 × 10^6 cells mL^−1 in RPMI 1640 supplemented with 10% FBS, 100 µg mL^−1 streptomycin and 100 unit mL^−1 penicillin, and cultured overnight. After removal of the non‐adherent cells, the medium was changed, and the OVA protein in buffer and PBS buffer only were added to different wells, respectively, and cultured for 48 h. The culture media was then collected and diluted for the ELISA tests. Following the instructions of ELISA kit, the samples, anti‐IFN‐γ antibody, and chromogenic substrates were added in order. The corresponding OD450 was measured by Multiskan GO (Thermo Scientific) microplate reader.

B1: OVA: Ovalbumin, model antigen for evaluation of vaccine adjuvants (protein, UniProt P01012 2-386, looked up)
Ovalbumin: GSIGAASMEFCFDVFKELKVHHANENIFYCPIAIMSALAMVYLGAKDSTRTQINKVVRFDKLPGFGDSIEAQCGTSVNVHSSLRDILNQITKPNDVYSFSLASRLYAEERYPILPEYLQCVKELYRGGLEPINFQTAADQARELINSWVESQTNGIIRNVLQPSSVDSQTAMVLVNAIVFKGLWEKAFKDEDTQAMPFRVTEQESKPVQMMYQIGLFRVASMASEKMKILELPFASGTMSMLVLLPDEVSGLEQLESIINFEKLTEWTSSNVMEERKIKVYLPRMKMEEKYNLTSVLMAMGITDVFSSSANLSGISSAESLKISQAVHAAHAEINEAGREVVGSAEAGVDAASVSEEFRADHPFLFCIKHIATNAVLFFGRCVSP
  IFN‐γ expression in cell media: Upregulation of IFN‐γ
